The target of test [1] is T1, Human ROBO2 overexpressed on HEK293 cells (human, UniProt Q9HCK4 22-1378).
T1 construct: also called ROBO2 cells; native ROBO2
T1 sequence: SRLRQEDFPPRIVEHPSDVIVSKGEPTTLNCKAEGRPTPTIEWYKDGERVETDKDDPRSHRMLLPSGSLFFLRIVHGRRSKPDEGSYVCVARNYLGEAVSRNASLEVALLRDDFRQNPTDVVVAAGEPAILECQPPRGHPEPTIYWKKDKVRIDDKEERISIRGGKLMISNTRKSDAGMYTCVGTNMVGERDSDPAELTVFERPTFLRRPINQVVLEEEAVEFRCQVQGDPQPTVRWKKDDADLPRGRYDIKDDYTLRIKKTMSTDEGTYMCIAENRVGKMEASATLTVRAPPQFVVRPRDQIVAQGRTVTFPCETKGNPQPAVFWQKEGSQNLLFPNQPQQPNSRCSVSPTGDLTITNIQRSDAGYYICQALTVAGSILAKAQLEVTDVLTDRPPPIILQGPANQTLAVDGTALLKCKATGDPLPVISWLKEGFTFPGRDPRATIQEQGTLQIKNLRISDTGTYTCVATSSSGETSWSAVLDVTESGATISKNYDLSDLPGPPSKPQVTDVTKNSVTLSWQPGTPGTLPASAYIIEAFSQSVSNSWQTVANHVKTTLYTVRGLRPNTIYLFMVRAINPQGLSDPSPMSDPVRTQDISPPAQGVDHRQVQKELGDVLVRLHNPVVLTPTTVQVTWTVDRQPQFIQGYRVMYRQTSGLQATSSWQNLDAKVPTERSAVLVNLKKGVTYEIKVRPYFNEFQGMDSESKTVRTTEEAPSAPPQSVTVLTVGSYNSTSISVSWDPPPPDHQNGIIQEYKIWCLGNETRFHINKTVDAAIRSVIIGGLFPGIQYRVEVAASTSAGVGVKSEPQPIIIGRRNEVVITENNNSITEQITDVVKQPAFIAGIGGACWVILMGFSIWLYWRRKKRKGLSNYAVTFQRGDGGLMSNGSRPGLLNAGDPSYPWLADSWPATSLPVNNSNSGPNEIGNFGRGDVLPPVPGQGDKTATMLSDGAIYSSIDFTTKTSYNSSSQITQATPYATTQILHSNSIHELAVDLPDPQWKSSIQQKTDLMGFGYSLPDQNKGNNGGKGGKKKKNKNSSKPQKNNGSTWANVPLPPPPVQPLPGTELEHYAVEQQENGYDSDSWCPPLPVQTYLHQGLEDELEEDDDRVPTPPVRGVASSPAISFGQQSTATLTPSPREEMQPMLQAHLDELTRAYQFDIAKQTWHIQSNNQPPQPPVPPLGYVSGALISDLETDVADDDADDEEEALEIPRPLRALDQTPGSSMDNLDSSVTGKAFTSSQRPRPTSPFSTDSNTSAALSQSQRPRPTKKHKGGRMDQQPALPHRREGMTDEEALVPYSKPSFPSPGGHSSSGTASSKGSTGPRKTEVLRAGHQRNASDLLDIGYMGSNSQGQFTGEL
Nature of the test: flow cytometry, HEK293 cells overexpressing human ROBO2. Here is the method: Binding of the antibodies was detected using a secondary fluorochrome conjugated anti-human IgG F(ab′)₂ antibody and samples were analyzed on a Fortessa cytometer (BD Biosciences). The fold ROBO2 selectivity was calculated as the geometric mean fluorescence intensity (Geo MFI) with ROBO2 cells/Geo MFI with ROBO1 cells. A fold change higher than 3 was considered to be ROBO2 specific (Table 2, Fold Selectivity). Some affinity matured clones had increased ROBO1 reactivity, for example Abcs 55, CTI-R2-10 and CTIR2-13.
Based upon several criteria, Abcs25 and Abcs35 were selected for further characterization. Using flow cytometry, improvement in the binding EC₅₀ to human ROBO2 relative to the parental 93H2 was evaluated. Starting at 6.7 nM, 11-point, 3-fold dilution series were made for each antibody and used to stain HEK293 overexpressing human ROBO2 as described above for the ROBO2 fold selectivity (Example 2). […] In addition to measuring improved binding to human ROBO2, it was important to ensure that high affinity binding to both cynomolgus monkey ROBO2 and rat ROBO2 was maintained. Using HEK293 cells overexpressing either cynomolgus monkey ROBO2 or rat ROBO2, the relative dose-dependent binding of 93H2, Abcs25 and Abcs35 was evaluated as described above. High affinity binding to both cynomolgus monkey and rat ROBO2 was maintained in Abcs25 and Abcs35 (Table 4). […] Briefly, Abcs35 was immobilized to 300 resonance units (RU) on a CM5 chip. Association of ROBO2 Ig1-Ig2-His (ROBO2) was measured over 5 minutes and dissociation was followed for a period of 10 minutes.
Background: In flow cytometry, cells or beads pass a laser one at a time.

Test [2] deals with T2, Terbium (Tb) labeled-SNAP tagged ROBO2 expressed on HEK293 cells (Homo sapiens (Human), UniProt Q9HCK4 22-1378, terbium label on the SNAP tag).
T2 construct: also called Tb-labeled ROBO2 cells; ROBO2 expressing cells; not shown: SNAP tag
T2 sequence: T1 sequence
Nature of the test: HTRF competition, competitor d2-SLIT2-N, ROBO2 HEK293 cells.

Broadly, the EC50 is the concentration at which the effect is half-maximal. Low values mean a more potent agent, high ones a less potent agent. The IC50 is the midpoint of a concentration-inhibition curve.

Positions count from the first letter of the chain named.

B1: 93H2 (antibody, human IgG1, kappa, V domains shown)
VH: EVQLVQSGAEVKKPGASVKVSCKASGYTFTGYYMHWVRQAPGQGLEWMGWINPNSGATNFPQKFQGRVTMTRDTSITTAYMDLSRLRSDDTAVYYCARESGDDAFDIWGQGTMVTVSS
VL: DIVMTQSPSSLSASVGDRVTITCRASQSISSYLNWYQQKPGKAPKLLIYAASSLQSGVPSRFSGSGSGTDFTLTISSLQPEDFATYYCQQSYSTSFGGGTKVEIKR
notes: also called parental 93H2; 93H2 mAb
In test [1], B1 displayed an EC50 of 0.133 nM.

B2: Abcs25 (antibody, human IgG1, kappa, V domains shown)
VH: B1 VH with N54K, S55D, A57D, N59E
VL: DIVMTQSPSSLSASVGDRVTITCRASQSISSYLNWYQQKPGKAPKLLIYAASSLQSGVPSRFSGSGSGTDFTLTISSLQPEDFATYYCQQSVGLSFGGGTKVEIKR
notes: chain-shuffled IgG
As for B2, a half-maximal effect in test [1] (EC50) was put at 0.056 nM.

B3: Abcs35 (antibody, human IgG1, kappa)
heavy: EVQLVQSGAEVKKPGASVKVSCKASGYTFTGYYMHWVRQAPGQGLEWMGWINPKNGDTEFPQKFQGRVTMTRDTSITTAYMDLSRLRSDDTAVYYCARESGDDAFDIWGQGTMVTVSSASTKGPSVFPLAPSSKSTSGGTAALGCLVKDYFPEPVTVSWNSGALTSGVHTFPAVLQSSGLYSLSSVVTVPSSSLGTQTYICNVNHKPSNTKVDKKVEPKSCDKTHTCPPCPAPEAAGAPSVFLFPPKPKDTLMISRTPEVTCVVVDVSHEDPEVKFNWYVDGVEVHNAKTKPREEQYNSTYRVVSVLTVLHQDWLNGKEYKCKVSNKALPAPIEKTISKAKGQPREPQVYTLPPSREEMTKNQVSLTCLVKGFYPSDIAVEWESNGQPENNYKTTPPVLDSDGSFFLYSKLTVDKSRWQQGNVFSCSVMHEALHNHYTQKSLSLSPGK
light: DIVMTQSPSSLSASVGDRVTITCRASQSISSYLNWYQQKPGKAPKLLIYAASSLQSGVPSRFSGSGSGTDFTLTISSLQPEDFATYYCQQSVGLFFGGGTKVEIKRTVAAPSVFIFPPSDEQLKSGTASVVCLLNNFYPREAKVQWKVDNALQSGNSQESVTEQDSKDSTYSLSSTLTLSKADYEKHKVYACEVTHQGLSSPVTKSFNRGEC
notes: fully human IgG1; VH of Ab96 with VL of Ab123
As for B3, the IC50 in test [2] was 0.0761 nM. For the same molecule, in test [1], the EC50 was determined as 0.055 nM.

B4: Abcs35-J (antibody, human IgG1, kappa)
heavy: B3 heavy with D82E
light: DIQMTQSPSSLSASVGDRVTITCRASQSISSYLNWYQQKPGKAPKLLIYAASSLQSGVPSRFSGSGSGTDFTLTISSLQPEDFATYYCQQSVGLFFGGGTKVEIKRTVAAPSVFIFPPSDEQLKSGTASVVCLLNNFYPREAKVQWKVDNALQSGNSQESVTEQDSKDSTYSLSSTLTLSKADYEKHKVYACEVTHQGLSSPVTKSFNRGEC
notes: germlined variant of Abcs35; also called ABCS-J
In test [2], B4 had an IC50 of 0.0744 nM.

The values above are taken from patent publication US20200157212A1 (Pfizer, published 2020).
